The text below walks through data of patent publication US20130004416A1 (published 2013).

In assay [1] the target is T1, human IL-12 (human, UniProt P29459 23-219; P29460 23-328).
T1 construct: ABT874 is said to be against human IL-12p40; also called hIL-12
T1 sequence (looked up) 1: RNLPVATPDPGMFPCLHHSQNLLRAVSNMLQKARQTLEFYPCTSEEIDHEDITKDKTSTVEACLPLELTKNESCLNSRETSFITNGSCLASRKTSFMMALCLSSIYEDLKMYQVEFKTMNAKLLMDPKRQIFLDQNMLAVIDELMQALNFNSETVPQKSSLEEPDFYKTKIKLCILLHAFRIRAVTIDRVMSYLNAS
T1 sequence (looked up) 2: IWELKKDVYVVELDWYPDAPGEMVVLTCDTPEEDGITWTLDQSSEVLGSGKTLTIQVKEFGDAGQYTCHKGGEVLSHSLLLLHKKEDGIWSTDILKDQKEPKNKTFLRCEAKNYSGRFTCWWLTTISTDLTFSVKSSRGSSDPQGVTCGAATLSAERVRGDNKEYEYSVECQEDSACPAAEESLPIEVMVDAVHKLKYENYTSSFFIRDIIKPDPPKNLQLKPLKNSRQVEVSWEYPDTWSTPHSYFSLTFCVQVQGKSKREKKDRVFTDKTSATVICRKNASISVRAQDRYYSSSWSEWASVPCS
The experiment in a line: SPR (Biacore). On the technique in general: SPR reads the build-up and loss of mass on a sensor chip optically.

For assay [2], the target named is T2, human IL-18 (human, UniProt Q14116 37-193).
T2 construct: also called hIL-18
The experiment in a line: SPR (Biacore).

The target of assay [3] is T1, human IL-12. The experiment in a line: cell-based or functional assay.
Assay [4] addresses T2, human IL-18. The experiment in a line: cell-based or functional assay.

B1: DVD1812LL (DVD1812HC-LL / DVD1812LC-LL) (bispecific antibody)
heavy: not shown
light: EIVMTQSPATLSVSPGERATLSCRASESISSNLAWYQQKPGQAPRLFIYTASTRATDIPARFSGSGSGTEFTLTISSLQSEDFAVYYCQQYNNWPSITFGQGTRLEIKRTVAAPSVFIFPPQSVLTQPPSVSGAPGQRVTISCSGSRSNIGSNTVKWYQQLPGTAPKLLIYYNDQRPSGVPDRFSGSKSGTSASLAITGLQAEDEADYYCQSYDRYTHPALLFGTGTKVTVLG
In the case of B1, the Kd turned out to be 0.113 nM in assay [1] and 0.162 nM in assay [2]. Also, the “Potency (IC50, M), IL-12-induced IFN-γ production by PHA blast cells” value in assay [3] is 1.18e-10 M. In addition, in assay [4], the “Potency (IC50, M), KG-1 bioassay” value worked out at 7.8e-11 M.

B2: DVD1812SL (DVD1812HC-SL / DVD1812LC-SL) (bispecific antibody)
chain 1: not shown
chain 2: EIVMTQSPATLSVSPGERATLSCRASESISSNLAWYQQKPGQAPRLFIYTASTRATDIPARFSGSGSGTEFTLTISSLQSEDFAVYYCQQYNNWPSITFGQGTRLEIKRTVAAPQSVLTQPPSVSGAPGQRVTISCSGSRSNIGSNTVKWYQQLPGTAPKLLIYYNDQRPSGVPDRFSGSKSGTSASLAITGLQAEDEADYYCQSYDRYTHPALLFGTGTKVTVLGTVAAPSVFIFPPSDEQLKSGTASVVCLLNNFYPREAKVQWKVDNALQSGNSQESVTEQDSKDSTYSLSSTLTLSKADYEKHKVYACEVTHQGLSSPVTKSFNRGEC
As to B2, the figures for the dissociation constant (Kd) in assay [1] and in assay [2] were 1.82 nM and 0.191 nM, respectively. Also, the “Potency (IC50, M), IL-12-induced IFN-γ production by PHA blast cells” value in assay [3] was 3.66e-10 M. The “Potency (IC50, M), KG-1 bioassay” value in assay [4] was 4e-11 M.

The term Kd denotes the constant that tells how readily two partners part at equilibrium.
